# Assay: soluble on expression in E. coli; label from the status in PepcDB or PDB records
row,Sequence,soluble on expression in E. coli
1,MSPHPPQPHPPMPPMPPVTAPPGAMTPMPPVPADAQKLHQSTGNDACIKRLQQLNVEDGAKMYMKPTEPGKMGRPVDIQTNVFGIEVTKETTVHRFMVHAKADLTSTKEVTFTKKGKEDFVVQDRRDKCCNIFFLAVEKNPEFFKMKDGNQIVYDGQSTLYTTVNLFSELDANGTKSKVFQINGADTGNDDLKTLPCISLEIYAPRDNSITLSSENLGKRTADQNIEVNNREYTQFLELALNQHCVRETNRFGCFEHGKVYFLNATEEGFDQRDCVDVGDGKQLYPGLKKTIQFIEGPYGRGQNNPSLVIDGMKAAFHKEQTVIQKLFDITGQDPSNGLNNMTREKAAAVIKGLDCYSTYTNRKRHLRIEGIFHESATKTRFELPDGKTCSIAEYYADKYKISLQYPNANLVVCKDRGNNNYFPAELMTVSRNQRVTIPQQTGNQSQKTTKECAVLPDVRQRMIITGKNAVNITLENELLVALGIKVYSEPLMVQARELDGKELVYQRSVMSDMGKWRAPPGWFVKPATVPDLWAAYAVGNPGCRFSIGDVNQLVGMFIDSCKKKGMVIKPPCETGLYSTEKIMTQLEKVAASKCKYVLMITDDAIVHLHKQYKALEQRTMMIVQDMKISKANAVVKDGKRLTLENIINKTNVKLGGLNYTVSDAKKSMTDEQLIIGVGVSAPPAGTKYMMDNKGHLNPQIIGFASNAVANHEFVGDFVLAPSGQDTMASIEDVLQNSIDLFEKNRKALPKRIIIYRSGASEGSHASILAYEIPLARAIIHGYSKEIKLIFIVVTKEHSYRFFRDQLRSGGKATEMNIPPGIVLDNAVTNPACKQFFLNGHTTLQGTAKTPLYTVLADDCKAPMDRLEELTFTLCHHHQIVSLSTSIPTPLYVANEYAKRGRDLWGELTTKGPIEAKESQGERLKELTKEIGYKQTDLNQKRVNA,not soluble
2,MSSRKRGITPSRDQVRRKKLSIEETDSIEVVCRLCPYTGSTPSLIAIDEGSIQTVLPPAQFRRENAPQVEKVFRFGRVFSENDGQATVFERTSVDLILNLLKGQNSLLFTYGVTGSGKTYTMTGKPTETGTGLLPRTLDVIFNSINNRVEKCIFYPSALNTFEIRATLDAHLKRHQMAADRLSTSREITDRYCEAIKLSGYNDDMVCSVFVTYVEIYNNYCYDLLEDARNGVLTKREIRHDRQQQMYVDGAKDVEVSSSEEALEVFCLGEERRRVSSTLLNKDSSRSHSVFTIKLVMAPRAYETKSVYPTMDSSQIIVSQLCLVDLAGSERAKRTQNVGERLAEANSINQSLMTLRQCIEVLRRNQKSSSQNLEQVPYRQSKLTHLFKNYLEGNGKIRMVICVNPKPDDYDENMSALAFAEESQTIEVKKQVERMPSERIPHSFFTQWNSELDGSVRMEDDGSREIPCPPTFCLTDCNDKDTVDSMYKYARKLSSLQNSSEEGPSSTLLTMIRQYMMEADYQRVEIARLKDSLNDKDEEIKKLRGFCSRYKRENASMKERIASCEQGEQENALVMEKLMEQKMEDRKIIQSQKKAMRNVRGIIDNPSPSVASLRSRFDQENVAHPTAPIQTPPPPYQTPGRAPVFKKRLEATTSTTVMSGSSSGGSGQQGYVNPKYQRRSKSASRLLDHQPLHRVPTGTVLQSRTPANAIRTTKPEMHQLNKSGEYRLTHQEVDDEGNISTNIVKGNVIPTVSGGTAVFFNDIERLTHESPSTRK,not soluble
3,SLLVENLKQLQERVAVSDGRAKADLVIKNGRIINVFSGEIMDGDIAIKNGYIAGIGNFPDAEKIIDAAGAFIAPGFIDAHVHVESAMVTPAEFARVLLPNGVTTIVTDPHEIANVAGEKGIEFMLEDAKGVPIDMFVMLPSSVPATEGEHNGETLHAEKLHPLYRHEKVIGLAEVMDFPSVAKGSSDILTKIIDAKKEGGRIDGHGAGLTSADLNNYLAVGIRTDHESTTAKEATDRLRAGMFVMLREGTVGRDLLQTIPAVSEKNSHRFCFCTDDKLINDLITEGSINFNIRLAIKNGIDPITAIQMATINAANCHNLPYLGAVAAGYQADIVFLTDIETVEISKVLKNGEVVVDNGVRHEAAFKQQAAVPFVSPPINHHVSLQDLALPLTKETCYVIGMQPNSLFTEKRIEQVAIQDGKFVPTVENDLLKMAVVERHHDTGCVGLGIVKGFGLTEGAIATTVAHDSHNIVAVGISDEAMKAAIDHITQTGGGIAVVNGAGQVLHDLALPIAGLLSDKSYEEVENDLAGLLNAFKQISTADGFDPFLTLSFLTLPVIPELKLTDQGLFDFATFQIISNEVN,soluble
4,MHPFYTRAATMIGEIAAAVSFISKFLRTKGLTSERQLQTFSQSLQELLAEHYKHHWFPEKPCKGSGYRCIRINHKMDPLIGQAAQRIGLSSQELFRLLPSELTLWVDPYEVSYRIGEDGSICVLYEASPAGGSTQNSTNVQMVDSRISCKEELLLGRTSPSKNYNMMTVSG,soluble
5,MTGKLPKACVIGAGCSGFTTIKRLKDYGIPYDCFEMSDEVGGNWYYKNPNGLSACYESLHIDTSKWRLAFEDFPVPKDWPDFPHHAQLFQYFKDYVDHFGLRPTITFNTKVESAKRTADGLWAVTLSGGETQFYDVLFVCNGHHWDPRVPEYPGEFDGPAFHAHAYCDPFDPVDMRGKNVVVVGMGNSAMDIASELSQRPIAKNLWVSARRGVWVFPKYLNGKPADKTALPAWMPRKLGVALSRSVLKKTIGRMEDYGLPKPDHEPLEAHPSVSGEFLTRAGCGDIKFKPAIKALEGKRVRFTDDSVEDVDAIVFATGYKISFPFFDDPALLPDADHRLPLFKRMMKPEVPNLFYMGLAQPLPTLVNFAEQQAKLAAAYLAGQYALPPPAEMARITAKDEHRHTGHFYDSARHTIQVDFNVYCADLKKEIAKGEARARNAGGKLPVAARAEGQALAAELEHHHHHH,soluble
6,GPGGGSEAYFRVESGALGPEENFLSLDDILMSHEKLPVRTETAMPRLGAFFLERSAGAETDNAVPQGSKLELPLWLAKGLFDNKRRILSVELPKIYQEGWRTVFSADPNVVDLHKMGPHFYGFGSQLLHFDSPENADISQSLLQTFIGRFRRIMDSSQNAYNEDTSALVARLDEMERGLFQTGQKGLNDFQCWEKGQASQITASNLVQNYKKRKFTDMED,soluble
7,MSLKFIVIKIGGSTLSDMHPSIINNIKHLRSNNIYPIIVHGGGPFINEALSNQQIEPHFVNGLRVTDKATMTITKHTLIADVNTALVAQFNQHQCSAIGLCGLDAQLFEITSFDQQYGYVGVPTALNKDALQYLCTKFVPIINSIGFNNHDGEFYNINADTLAYFIASSLKAPIYVLSNIAGVLINDVVIPQLPLVDIHQYIEHGDIYGGMIPKVLDAKNAIENGCPKVIIASGNKPNIIESIYNNDFVGTTILNSEGHHHHHH,soluble
8,MPFHLALGLSNCEQIYEPGGTIEGYVTFDLRESVKVKAIRISAEGLATTKWLLSESSKSSHGRSREVSYSAKVTYLDEEQMVWKPSEGHSKSSVFPGIHVYPFKFQIPIGVPPSFEGDHGNIRYHMKATVERPWKTNRSVTRYLTILPPKDLNKEVLASEETSSWKSKKIRIPKKGYVPGETISIETNIDNMSSRPILKTECYLIQQCRFLAYRYGISGPTDGRRASSLSENDRYLSRKRDEIKIVSVIHEMHIEPRTEHKAKMRLKIPCTCPTFDSTLIHVEYFVVVKLHVKCRMRNTVKAECPIIIGSKPLADEHVDPRTPTYQEVATFSALTHRSMMSVDEKLTPKYVYYPKYGKSRDDEADEPPSLTDLQLPPIDSLSDDD,not soluble
9,GMSIVGNVENLINGVGELWNKYVKHEFILKMRDGSLPLDIFRYYLIQDGKYVEDMLRALLIASSKGPIDKVTKILNLVFSSRDKGLETHGKLYSKLDISRDVIVKTGYNLINYAYTRHLYYYANLDWNKFLVAWTPCMFGYSIVGDYVIDSPNEVYKTWASFYASTEYKKRIEAILYALDEVSITEDLLNIFINSVRFEIGFWDASLRKDPTVY,soluble
10,MPILFDCNAIASQVLKDEASALLESVGQFQKPNDLEAIVKLILKSQENGGKLVIVGVGKSALVAQKIVASMLSTGNRSAFLHPTEAMHGDLGMVEKNDVVLMISYGGESLELLNLVSHLKRLSHKIITFTKSPNSSLSKLGDYYLSLKIQKEACPINTAPTTSTTLTLALGDVLMACLMRAKNFSQEDFASFHPGGLLGKKLFVKVKDLLQTTNLPLIAPSTSFKDALIEMSEKRLGSAILVNEANELVGVLSDGDVRRALLKGVSLKSEVRHFATLKPKSFKNLDALLLEALEFLERHKIQLLVCVDDHNKVLGVLHLHQLLELGLKA,not soluble
11,MNSYVKWIFVVLLICSLTAFVEKDKPTGGLSEGDVAPDFKIESASNGQPAFKLGNLKGKYVLLSFWASYDAQSRMQNVSLSNVLRSSRNVEMVSVSFDEYQSIFKETVRKDQIVTPTCFVETEGEDSRLFKKYRLNRGFTNYLLDGNGVIIAKNISAADLSAYVSEIG,not soluble
